Assay results from paper PMC9352680, “A comprehensive thermodynamic model for RNA binding by the Saccharomyces cerevisiae Pumilio protein PUF4”.

B1: Id_ii_S2_P5E.3_K5.2_C5.2_[C-2G]_[T-1C]_H5.2_A5.1_F5.1_T5.2_[A12T] (ssRNA)
RNA: UUUGAUUAAUAUGAUAUCGUUCUUUCUGCUAUAUUAUUAUUUUCUUUCUCGAUAUCAUAUUAAUCUUU
B2: Id_ii_S2_P5E.3_K5.2_C5.2_[C-2G]_[T-1C]_H5.2_A5.1_F5.1_T5.2_[T11C]_[A12C] (ssRNA)
RNA: UUUGAUUAAUAUGAUAUCGUUCUUUCUGCUAUAUUAUUACCUUCUUUCUCGAUAUCAUAUUAAUCUUU
B3: Id_ii_S2_P5E.3_K5.2_C5.2_[C-2T]_[T-1G]_H5.2_A5.1_F5.1_T5.2_[T11G]_[A12T] (ssRNA)
RNA: UUUGAUUAAUAUGAUAUCGUUCUUUCUUGUAUAUUAUUAGUUUCUUUCUCGAUAUCAUAUUAAUCUUU
B4: Id_ii_S2_P5E.3_K5.2_C5.2_[C-2T]_[T-1A]_H5.2_A5.1_F5.1_T5.2_[T11A]_[A12T] (ssRNA)
RNA: UUUGAUUAAUAUGAUAUCGUUCUUUCUUAUAUAUUAUUAAUUUCUUUCUCGAUAUCAUAUUAAUCUUU
B5: Id_ii_S2_P5E.3_K5.2_C5.2_[C-2T]_[T-1A]_H5.2_A5.1_F5.1_T5.2_[T11C]_[A12T] (ssRNA)
RNA: UUUGAUUAAUAUGAUAUCGUUCUUUCUUAUAUAUUAUUACUUUCUUUCUCGAUAUCAUAUUAAUCUUU
B6: Id_ii_S2_P5E.3_K5.2_C5.2_[C-2T]_[T-1G]_H5.2_A5.1_F5.1_T5.2_[A12T] (ssRNA)
RNA: UUUGAUUAAUAUGAUAUCGUUCUUUCUUGUAUAUUAUUAUUUUCUUUCUCGAUAUCAUAUUAAUCUUU
B7: Id_ii_S2_P5E.3_K5.2_C5.2_[C-2T]_[T-1A]_H5.2_A5.1_F5.1_T5.2_[T11G]_[A12T] (ssRNA)
RNA: UUUGAUUAAUAUGAUAUCGUUCUUUCUUAUAUAUUAUUAGUUUCUUUCUCGAUAUCAUAUUAAUCUUU
B8: Id_ii_S2_P5E.3_K5.2_C5.2_[C-2T]_[T-1C]_H5.2_A5.1_F5.1_T5.2_[T11A] (ssRNA)
RNA: UUUGAUUAAUAUGAUAUCGUUCUUUCUUCUAUAUUAUUAAAUUCUUUCUCGAUAUCAUAUUAAUCUUU
B9: Id_ii_S2_P5E.3_K5.2_C5.2_[C-2T]_[T-1G]_H5.2_A5.1_F5.1_T5.2_[A12C] (ssRNA)
RNA: UUUGAUUAAUAUGAUAUCGUUCUUUCUUGUAUAUUAUUAUCUUCUUUCUCGAUAUCAUAUUAAUCUUU
B10: Id_ii_S2_P5E.3_K5.2_C5.2_[C-2G]_H5.2_A5.1_F5.1_T5.2_[T11G]_[A12T] (ssRNA)
RNA: UUUGAUUAAUAUGAUAUCGUUCUUUCUGUUAUAUUAUUAGUUUCUUUCUCGAUAUCAUAUUAAUCUUU
B11: Id_ii_S2_P5E.3_K5.2_C5.2_[C-2T]_[T-1C]_H5.2_A5.1_F5.1_T5.2_[T11C] (ssRNA)
RNA: UUUGAUUAAUAUGAUAUCGUUCUUUCUUCUAUAUUAUUACAUUCUUUCUCGAUAUCAUAUUAAUCUUU
B12: Id_ii_S2_P5E.3_K5.2_C5.2_[C-2G]_[T-1C]_H5.2_A5.1_F5.1_T5.2_[A12C] (ssRNA)
RNA: UUUGAUUAAUAUGAUAUCGUUCUUUCUGCUAUAUUAUUAUCUUCUUUCUCGAUAUCAUAUUAAUCUUU
B13: Id_ii_S2_P5E.2_K5.1_C5.2_H5.1_A5.1_F5.1_T5.2_[A12T] (ssRNA)
RNA: UUUGAUUAAUAUGAUAUCGUUCUUUCUCUUGUAUUAUUAUUUUCUUUCUCGAUAUCAUAUUAAUCUUU
B14: Id_ii_S2_P5E.3_K5.2_C5.2_[C-2G]_[T-1C]_H5.2_A5.1_F5.1_T5.2_[T11A]_[A12T] (ssRNA)
RNA: UUUGAUUAAUAUGAUAUCGUUCUUUCUGCUAUAUUAUUAAUUUCUUUCUCGAUAUCAUAUUAAUCUUU
B15: Id_ii_S2_P5E.3_K5.2_C5.2_[C-2T]_[T-1G]_H5.2_A5.1_F5.1_T5.2_[T11A]_[A12C] (ssRNA)
RNA: UUUGAUUAAUAUGAUAUCGUUCUUUCUUGUAUAUUAUUAACUUCUUUCUCGAUAUCAUAUUAAUCUUU
B16: Id_ii_S2_P5E.3_K5.2_C5.2_[C-2T]_[T-1C]_H5.2_A5.1_F5.1_T5.2_[T11C]_[A12G] (ssRNA)
RNA: UUUGAUUAAUAUGAUAUCGUUCUUUCUUCUAUAUUAUUACGUUCUUUCUCGAUAUCAUAUUAAUCUUU
B17: Id_ii_S2_P5E.3_K5.2_C5.2_[C-2T]_[T-1G]_H5.2_A5.1_F5.1_T5.2_[T11A]_[A12T] (ssRNA)
RNA: UUUGAUUAAUAUGAUAUCGUUCUUUCUUGUAUAUUAUUAAUUUCUUUCUCGAUAUCAUAUUAAUCUUU
B18: Id_ii_S2_P5E.3_K5.2_C5.2_[C-2G]_[T-1C]_H5.2_A5.1_F5.1_T5.2_[T11A]_[A12C] (ssRNA)
RNA: UUUGAUUAAUAUGAUAUCGUUCUUUCUGCUAUAUUAUUAACUUCUUUCUCGAUAUCAUAUUAAUCUUU
B19: Id_ii_S2_P5E.3_K5.2_C5.2_[C-2G]_H5.2_A5.1_F5.1_T5.2_[T11C]_[A12G] (ssRNA)
RNA: UUUGAUUAAUAUGAUAUCGUUCUUUCUGUUAUAUUAUUACGUUCUUUCUCGAUAUCAUAUUAAUCUUU
B20: Id_ii_S2_P5E.3_K5.2_C5.2_[C-2T]_[T-1C]_H5.2_A5.1_F5.1_T5.2_[T11A]_[A12T] (ssRNA)
RNA: UUUGAUUAAUAUGAUAUCGUUCUUUCUUCUAUAUUAUUAAUUUCUUUCUCGAUAUCAUAUUAAUCUUU
B21: Id_ii_S2_P5E.3_K5.2_C5.2_[C-2T]_[T-1C]_H5.2_A5.1_F5.1_T5.2_[T11C]_[A12T] (ssRNA)
RNA: UUUGAUUAAUAUGAUAUCGUUCUUUCUUCUAUAUUAUUACUUUCUUUCUCGAUAUCAUAUUAAUCUUU

target: T1, PUF4 RNA-binding domain (Saccharomyces cerevisiae, UniProt P25339 537-888); experiment: Mg; RNA-MaP; 20 mM Na-HEPES pH 7.4, 30 mM KOAc, 0.75 mM MgCl2, 0.1% Tween-20, 5% glycerol, 0.1 mg/mL BSA, 2 mM DTT; 25 C; 0.0125-409.6 nM protein; settings: tags: N-His6-TEV cleaved; C-SNAP kept, Cy3B-labelled; label: tethered on chip by stalled RNA polymerase
T1 sequence: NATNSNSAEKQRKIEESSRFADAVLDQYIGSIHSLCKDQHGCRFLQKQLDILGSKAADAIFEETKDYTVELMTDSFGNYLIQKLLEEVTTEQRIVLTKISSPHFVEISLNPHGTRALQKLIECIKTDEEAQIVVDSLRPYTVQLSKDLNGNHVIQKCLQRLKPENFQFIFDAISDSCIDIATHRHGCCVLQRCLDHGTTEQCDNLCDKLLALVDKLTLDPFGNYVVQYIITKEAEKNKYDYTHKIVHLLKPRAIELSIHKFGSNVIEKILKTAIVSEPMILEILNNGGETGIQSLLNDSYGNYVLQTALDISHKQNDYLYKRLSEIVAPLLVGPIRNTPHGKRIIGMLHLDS

B1 and B2 are within 1.5-fold of each other in Kd: 92.5 nM for the first, 133 nM for the second.

Going from B3 to B4, the Kd rises from 0.685 nM to 21 nM (31-fold).

Compared with B5, B6 is 23-fold lower in Kd: 6.8 nM for the first, 0.297 nM for the second. The second binds more tightly here.

Compared with B7, B8 is 5.3-fold higher in Kd: 41.6 nM for the first, 220 nM for the second. The first binds more tightly here.

Going from B9 to B10, the Kd rises from 0.994 nM to 16.7 nM (17-fold).

First: B11
Second: B12
The Kd of the first is 2.5-fold lower: 179 nM for the first, 455 nM for the second.

First: B13
Second: B14
The Kd of the first is 80-fold lower: 1.19 nM for the first, 95.1 nM for the second. The first binds more tightly here.

Going from B15 to B16, the Kd rises from 0.571 nM to 419 nM (730-fold).

Going from B17 to B18, the Kd rises from 0.37 nM to 381 nM (1000-fold). The first binds more tightly here.

Going from B19 to B20, the Kd rises from 68.5 nM to 149 nM (2.2-fold). The first binds more tightly here.

First: B21
Second: UCUCUUUGUAUUCGUAUCUCUU (ssRNA) [Ib_S1_P5E.1_K5.1_C5.1_H5.1_A5.1_[A7C]_F5.1_[T8G]_T5.1]
The Kd of the first is 4.3-fold higher: 82.2 nM for the first, 19.1 nM for the second. The second binds more tightly here.

Work on UCUCUUUGUAUUGGUAUCUCUU (ssRNA) [Ic_S1_P5E.1_K5.1_C5.1_H5.1_A5.1_[A7G]_F5.1_[T8G]_T5.1] yielded a Kd of 37.5 nM.
